Assay results as given in paper PMC2140037 (The Journal of Cell Biology, 2007).

Legend:
GST-Sed5H1 (yeast) = GST-Sed5H1 (yeast) (UniProt Q01590); assay: pull-down
GST-Sed5H1 + 2 (yeast) = GST-Sed5H1 + 2 (yeast) (UniProt Q01590); assay: pull-down
GST-Sed5H2 (yeast) = GST-Sed5H2 (yeast) (UniProt Q01590); assay: pull-down
[1] = biological target: rat Cog3p (rat (endogenous in rat liver Golgi membranes)); assay: co-IP
[2] = biological target: yeast COG complex (purified from TAP-yCog2 cells) (yeast, UniProt P53079;P53271;P40094;Q06096;P53951;P53959;P53195;Q04632); assay: pull-down

“yeast COG complex (purified from TAP-yCog2 cells), P53079;P53271;P40094;Q06096;P53951;P53959;P53195;Q04632” was tested, and the fold less efficient binding than to the cytosolic portion of Sed5p and Sed5H3 (GST-Sed5H1 (yeast)) was 4 fold, the fold less efficient binding than to the cytosolic portion of Sed5p and Sed5H3 (GST-Sed5H1 + 2 (yeast)) was 4 fold and the fold less efficient binding than to the cytosolic portion of Sed5p and Sed5H3 (GST-Sed5H2 (yeast)) was 4 fold.

B1: Syntaxin5a (rat liver Golgi) (natural protein)
chain: MSCRDRTQEFLSACKSLQSRQNGIQTNKPALHATRQCSEFTLMARRIGKDLSNTFAKLEKLTILAKRKSLFDDKAVEIEELTYIIKQDINSLNKQIAQLQDFVRAKGSQSGRHLQTHSNTIVVSLQSKLASMSNDFKSVLEVRTENLKQQRNRREQFSRAPVSALPLAPNNLGGGPIVLGGESRASRDVAIDMMDPRTSQQLQLIDEQDSYIQSRADTMQNIESTIVELGSIFQQLAHMVKEQEETIQRIDENVLGAQLDVEAAHSEILKYFQSVTSNRWLMVKIFLILIVFFIIFVVFLA
B1 was tested, and the percent coimmunoprecipitated [1] was < 4%.

B2: GS28 (rat liver Golgi) (natural protein)
chain: MAAGTSNYWEDLRKQARQLENELDLKLVSFSKLCTSYSHSSARDGGRDRYSSDTTPLLNGSSQDRMFETMAIEIEQLLARLTGVNDKMAEYTHSAGVPSLNAALMHTLQRHRDILQDYTHEFHKTKANFMAIRERENLMGSVRKDIESYKSGSGVNNRRTELFLKEHDHLRNSDRLIEETISIAMATKENMTSQRGMLKSIHSKMNTLANRFPAVNSLIQRINLRKRRDSLILGGVIGICTILLLLYAFH
B2 was tested, and the percent coimmunoprecipitated [1] was < 4%.

B3: Golgi matrix protein GM130 (rat liver Golgi) (natural protein)
chain: MWPPRFPPPRPGMSEETRQSKLAAAKKKLREYQQKNSPGVPAGAKKKKKIKNGHSPERTSASDCQSAENVPTDHTAPAPPSTAAATMFLGVVPSPDADLIQSHDAGNCSNLMEETKTFSSTESLRQLSQQLNGLVSESTSYINGEGLTSSNMKELESRYQELAVALDSSYVTNKQLSSTIEELKQQNQDTLDQLEKEKKDYQQKLAKEQGALREQLQVHIQTIGILVSEKAELQTALAHTQQAARQKAGESEDLASRLQSSRQRVGELERTLSTVSTQQKQADRYNKDLTKERDALKLELYKNGKSNEDLRQQNSELEEKLRVLVAEKAAAQLGAEELQKKLEMSELLLQQFSSQSEASGSNEQLQQAMEERAQLESHVGQLMESLKQLQVERDQYAENLKGESAMWQQRVQQMAEQVHALKEEKEQRESQVQELEASLAELRSQMEEPPPPEPPTGPSEAEERLQGEVEQLQKELEGLTGQLRAQVQDNESLSHLNREQEGRLLELEREAQHWSEQAEERKQILESMQSDRTTISRALSQNRELKEQLAELQNGFVRLTNENMEITSALQSEQHVKKELARKLGELQERLGELKETVELKSQEAQGLQEQRDQCLSHLQQYAAAYQQHLTAYEQLTSEKEALHKQLLLQTQLMDQLQHEEVQGKMAAEMARQELQEAQERLKASSQENQQLQAQLSLLVLPGEDMDQEEQDEEVPQPSLTIPEDLVSREAMVAFCNAAIARAEEEQARLRVQLREQKARCRSLAHLAAPVQSKLEKEAVVPRDMGDSVSEESNQALHVAMEKLQNRFLEVMQEKVELKERVEELEHCCIQLSGETDTIGEYIALYQNQRAVLKARHLEKEEYISRLAQDKEEMKVKLLELQELVLRLVNERNEWQGKFLAVSQNPADVPAPVPTGSQEFGAADQQGDLREVSLADDTEPAQGEAGVPAPQENPTAQQIMQLLREIQNPQERPGLGSNPCIPFFYRADENDEVKIMVI
For B3, the percent coimmunoprecipitated [1] was 10%.

B4: vesicle-tethering factor p115 (rat liver Golgi) (natural protein)
chain: MNFLRGVMGGQSAGPQHTEAETIQKLCDRVASSTLLDDRRNAVRALKSLSKKYRLEVGIQAMEHLIHVLQTDRSDSEIIAYALDTLYNIISNDEEEEVEENSTRQSEDLGSQFTEIFIKQPENVTLLLSLLEEFDFHVRWPGVRLLTSLLKQLGPPVQQIILVSPMGVSKLMDLLADSREIIRNDGVLLLQALTRSNGAIQKIVAFENAFERLLDIITEEGNSDGGIVVEDCLILLQNLLKNNNSNQNFFKEGSYIQRMKAWFEVGDENPGWSAQKVTNLHLMLQLVRVLVSPTNPPGATSSCQKAMFQCGLLQQLCTILMATGIPADILTETINTVSEVIRGCQVNQDYFASVNAPSNPPRPAIVVLLMSMVNERQPFVLRCAVLYCFQCFLYKNEKGQGEIVATLLPSTIDATGNSVSAGQLLCGGLFSTDSLSNWCAAVALAHALQGNATQKEQLLRVQLATSIGNPPVSLLQQCTNILSQGSKIQTRVGLLMLLCTWLSNCPIAVTHFLHNSANVPFLTGQIAENLGEEEQLVQGLCALLLGISIYFNDNSLENYTKEKLKQLIEKRIGKENYIEKLGFISKHELYSRASQKPQPNFPSPEYMIFDHEFTKLVKELEGVITKAIYKSSEEDKKEEEVKKTLEQHDNIVTHYKNMIREQDLQLEELKQQVSTLKCQNEQLQTAVTQQASQIQQHKDQYNLLKVQLGKDNHHQGSHSDGAQVNGIQPEEISRLREEIEELRSHQVLLQSQLAEKDTVIENLRSSQVSGMSEQALATCSPRDAEQVAELKQELSALKSQLCSQSLEITRLQTENSELQQRAETLAKSVPVEGESELVTAAKTTDVEGRLSALLQETKELKNEIKALSEERTAIQKQLDSSNSTIAILQTEKDKLYLEVTDSKKEQDDLLVLLADQDQKILSLKSKLKDLGHPVEEEDESGDQEDDDDELDDGDRDQDI
B4 was tested, and the percent coimmunoprecipitated [1] was 4%.

B5: GST-Sed5p, cytosolic portion (domain or fragment)
chain: MNIKDRTSEFQQSVLSYKKRNKNFREQQRERLQEKESENFANNTTGNGKSVSEFQKKASGIAHEISSTAQLLSKLAVLAKRKPMFNDNPVEIAELSFLIKRKIYAIEQSLVQLSQLKKTDVNGNTSNQSSKQPSAVQHSKNVVNLLNTQMKNISGSFKDVLEERQRLEMANKDRWQKLTTDTGHAPADDQTQSNHAADLTTYNNSNPFMTSLLDESSEKNNNSSNQGELSFPQNDSQLMLMEEGQLSNNVYLQERNRAVETIESTIQEVGNLFQQLASMVQEQGEVIQRIDANVDDIDLNISGAQRELLKYFDRIKSNR
B5: binds [2].

B6: GST-Sed5H3 (SNARE domain of Sed5p) (domain or fragment)
chain: FMTSLLDESSEKNNNSSNQGELSFPQNDSQLMLMEEGQLSNNVYLQERNRAVETIESTIQEVGNLFQQLASMVQEQGEVIQRIDANVDDIDLNISGAQRELLKYFDRIKSNRWLAAK
B6: binds [2].
